We go through four molecules from article PMC11437124 (Nature Communications, 2024).

In general, Kd refers to the equilibrium constant for the complex coming apart.

Test [1] has as its target T1, 18-mer TREM2 peptide (148-165) (Homo sapiens, UniProt Q9NZC2).
T1 chain: ESFEDAHVEHSISRSLLE
Description: crystal structure.

Test [2] deals with T2, TREM2 peptide 149-168 (Homo sapiens, UniProt Q9NZC2, biotinylated at the amino-terminus).
T2 chain: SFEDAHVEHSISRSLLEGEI
The test is described as follows: ELISA. Background: ELISA stands for enzyme-linked immunosorbent assay.

Test [3] has as its target T3, peptide with the entire TREM2 stalk region (Homo sapiens, UniProt Q9NZC2, biotinylated at the amino-terminus).
T3 chain: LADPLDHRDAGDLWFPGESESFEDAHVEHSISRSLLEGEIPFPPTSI
The test is described as follows: ELISA.

Test [4] deals with T4, TREM2 peptide 149-161, wild type (Homo sapiens, UniProt Q9NZC2).
T4 chain: SFEDAHVEHSISR
The test is described as follows: BLI. For orientation: BLI is a label-free optical method that tracks binding on a fibre tip over time.

Test [5] concerns the target these 4 clones (3.10C2, 3.27H7, 3.18E5 and 3.50G1), SPR screening. The test is described as follows: SPR.

B1: huPara.09 Fab fragment (Fab, V domains shown)
VH: EVQLVESGGGLVQPGGSLKLSCATSGFPFSNVWLHWVRQASGKGPEWVAHIKAKSDNYATYYAESVKGRFTISRDDSKNTVYLQMNSLKTEDTAVYYCTDILEYWGQGTLVTVSS
VL: DVVMTQSPLSLPVTPGEPASISCRSSRSLLTSKGITSLYWYLQKPGQSPQLLIYRMSNLASGIPDRFSGSGSGTDFTLKISRVEAEDVGVYYCAQFLVYPYTFGPGTKVEIK
For the molecule B1, in test [1], the binding result is listed as “binds”.

B2: antibody Para.09 (IgG, with the light chain of 3.10C2) (antibody, V domains shown)
VH: EVQLVETGGSLVQPGKSLRLTCATSGFPFSNVWLHWVRQSPEKHPEWVAHIKAKSDNYATYYAESVKGRFTISRDDSKSSVFLQMNSLKEEDTAIYYCTDILEYWGQGTLVTVSS
VL: DTVLTQAPLSLSVTPGESASISCRSSKSLLGVRDITSLYWYLQKPGKSPQLLIYRMSNLASGVPDRFSGSGSETDFTLKISEVETEDVGVYYCAQFLRYPYTFGPGTKLELK
Turning to B2, the binding result in test [2] and in test [3] was “binds” each time.

B3: Fab fragment of antibody Para.09 (Fab, V domains shown)
VH: B2 VH
VL: B2 VL
As for B3, the binding result in test [4] was “binds”.

B4: human TREM2 extracellular domain (ECD) (domain or fragment)
chain: HNTTVFQGVAGQSLQVSCPYDSMKHWGRRKAWCRQLGEKGPCQRVVSTHNLWLLSFLRRWNGSTAITDDTLGGTLTITLRNLQPHDAGLYQCQSLHGSEADTLRKVLVEVLADPLDHRDAGDLWFPGESESFEDAHVEHSISRSLLEGEIPFPPTS
For the molecule B4, the Kd in test [5] lay in the range of 0.14 to 0.67 nM.
